{
  "source": "the Human Domainome abundance scans (Beltran et al. 2025)",
  "parents": {"B1": {"name": "Storkhead-box protein 2, residues 64 to 141; numbered along this chain, Q9P2F5 (parent)", "chain": "SPISQSQFIPLGEILCLAISAMNSARKPVTQEALMEHLTTCFPGVPTPSQEILRHTLNTLVRERKIYPTPDGYFIVTP"}},
  "note": "± gives the uncertainty stated by the source.",
  "data": [
    {"variants_of": "B1", "assay": "abundance fitness (aPCA) (normalised: wild type 0, dead -1); higher = more abundant; growth selection in yeast, the domain comes from the species named", "conditions": "Homo sapiens", "values": [
      {"variant": "SPISQSQFIPLGEILCLAISAMNSARKPVTQEALMEHLTTCNPGVPTPSQEILRHTLNTLVRERKIYPTPDGYFIVTP", "note": "[F42N]", "abundance fitness": "0.106 ± 0.21"},
      {"variant": "SPISQSQFIPLGEILCLAISAMNSARKPVTQEALMEHLTTCWPGVPTPSQEILRHTLNTLVRERKIYPTPDGYFIVTP", "note": "[F42W]", "abundance fitness": "-0.086 ± 0.047"},
      {"variant": "SPISQSQFIPLGEILCLAISAMNSARKPVTQEALMEHLTTCQPGVPTPSQEILRHTLNTLVRERKIYPTPDGYFIVTP", "note": "[F42Q]", "abundance fitness": "-0.661 ± 0.47"},
      {"variant": "SPISQSQFIPLGEILCLAISAMNSARKPVTQEALMEHLTTCPPGVPTPSQEILRHTLNTLVRERKIYPTPDGYFIVTP", "note": "[F42P]", "abundance fitness": "-0.057 ± 0.1"},
      {"variant": "SPISQSQFIPLGEILCLAISAMNSARKPVTQEALMEHLTTCLPGVPTPSQEILRHTLNTLVRERKIYPTPDGYFIVTP", "note": "[F42L]", "abundance fitness": "-0.08 ± 0.1"},
      {"variant": "SPISQSQFIPLGEILCLAISAMNSARKPVTQEALMEHLTTCVPGVPTPSQEILRHTLNTLVRERKIYPTPDGYFIVTP", "note": "[F42V]", "abundance fitness": "-0.045 ± 0.11"},
      {"variant": "SPISQSQFIPLGEILCLAISAMNSARKPVTQEALMEHLTTCTPGVPTPSQEILRHTLNTLVRERKIYPTPDGYFIVTP", "note": "[F42T]", "abundance fitness": "0.176 ± 0.17"},
      {"variant": "SPISQSQFIPLGEILCLAISAMNSARKPVTQEALMEHLTTCMPGVPTPSQEILRHTLNTLVRERKIYPTPDGYFIVTP", "note": "[F42M]", "abundance fitness": "0.033 ± 0.2"},
      {"variant": "SPISQSQFIPLGEILCLAISAMNSARKPVTQEALMEHLTTCRPGVPTPSQEILRHTLNTLVRERKIYPTPDGYFIVTP", "note": "[F42R]", "abundance fitness": "0.001 ± 0.1"},
      {"variant": "SPISQSQFIPLGEILCLAISAMNSARKPVTQEALMEHLTTCFPCVPTPSQEILRHTLNTLVRERKIYPTPDGYFIVTP", "note": "[G44C]", "abundance fitness": "-0.046 ± 0.064"},
      {"variant": "SPISQSQFIPLGEILCLAISAMNSARKPVTQEALMEHLTTCFPMVPTPSQEILRHTLNTLVRERKIYPTPDGYFIVTP", "note": "[G44M]", "abundance fitness": "-0.024 ± 0.055"},
      {"variant": "SPISQSQFIPLGEILCLAISAMNSARKPVTQEALMEHLTTCFPAVPTPSQEILRHTLNTLVRERKIYPTPDGYFIVTP", "note": "[G44A]", "abundance fitness": "-0.054 ± 0.044"},
      {"variant": "SPISQSQFIPLGEILCLAISAMNSARKPVTQEALMEHLTTCFPFVPTPSQEILRHTLNTLVRERKIYPTPDGYFIVTP", "note": "[G44F]", "abundance fitness": "-0.156 ± 0.069"},
      {"variant": "SPISQSQFIPLGEILCLAISAMNSARKPVTQEALMEHLTTCFPPVPTPSQEILRHTLNTLVRERKIYPTPDGYFIVTP", "note": "[G44P]", "abundance fitness": "-0.063 ± 0.053"},
      {"variant": "SPISQSQFIPLGEILCLAISAMNSARKPVTQEALMEHLTTCFPNVPTPSQEILRHTLNTLVRERKIYPTPDGYFIVTP", "note": "[G44N]", "abundance fitness": "0.024 ± 0.17"},
      {"variant": "SPISQSQFIPLGEILCLAISAMNSARKPVTQEALMEHLTTCFPDVPTPSQEILRHTLNTLVRERKIYPTPDGYFIVTP", "note": "[G44D]", "abundance fitness": "0.073 ± 0.12"},
      {"variant": "SPISQSQFIPLGEILCLAISAMNSARKPVTQEALMEHLTTCFPHVPTPSQEILRHTLNTLVRERKIYPTPDGYFIVTP", "note": "[G44H]", "abundance fitness": "-0.023 ± 0.077"},
      {"variant": "SPISQSQFIPLGEILCLAISAMNSARKPVTQEALMEHLTTCFPLVPTPSQEILRHTLNTLVRERKIYPTPDGYFIVTP", "note": "[G44L]", "abundance fitness": "-0.091 ± 0.034"},
      {"variant": "SPISQSQFIPLGEILCLAISAMNSARKPVTQEALMEHLTTCFSGVPTPSQEILRHTLNTLVRERKIYPTPDGYFIVTP", "note": "[P43S]", "abundance fitness": "-0.023 ± 0.048"},
      {"variant": "SPISQSQFIPLGEILCLAISAMNSARKPVTQEALMEHLTTCFKGVPTPSQEILRHTLNTLVRERKIYPTPDGYFIVTP", "note": "[P43K]", "abundance fitness": "0.048 ± 0.057"},
      {"variant": "SPISQSQFIPLGEILCLAISAMNSARKPVTQEALMEHLTTCFAGVPTPSQEILRHTLNTLVRERKIYPTPDGYFIVTP", "note": "[P43A]", "abundance fitness": "-0.137 ± 0.056"},
      {"variant": "SPISQSQFIPLGEILCLAISAMNSARKPVTQEALMEHLTTCFQGVPTPSQEILRHTLNTLVRERKIYPTPDGYFIVTP", "note": "[P43Q]", "abundance fitness": "-0.057 ± 0.064"},
      {"variant": "SPISQSQFIPLGEILCLAISAMNSARKPVTQEALMEHLTTCFFGVPTPSQEILRHTLNTLVRERKIYPTPDGYFIVTP", "note": "[P43F]", "abundance fitness": "-0.184 ± 0.093"},
      {"variant": "SPISQSQFIPLGEILCLAISAMNSARKPVTQEALMEHLTTCFCGVPTPSQEILRHTLNTLVRERKIYPTPDGYFIVTP", "note": "[P43C]", "abundance fitness": "-0.135 ± 0.026"},
      {"variant": "SPISQSQFIPLGEILCLAISAMNSARKPVTQEALMEHLTTCFGGVPTPSQEILRHTLNTLVRERKIYPTPDGYFIVTP", "note": "[P43G]", "abundance fitness": "-0.101 ± 0.036"},
      {"variant": "SPISQSQFIPLGEILCLAISAMNSARKPVTQEALMEHLTTCFIGVPTPSQEILRHTLNTLVRERKIYPTPDGYFIVTP", "note": "[P43I]", "abundance fitness": "-0.092 ± 0.11"},
      {"variant": "SPISQSQFIPLGEILCLAISAMNSARKPVTQEALMEHLTTCFLGVPTPSQEILRHTLNTLVRERKIYPTPDGYFIVTP", "note": "[P43L]", "abundance fitness": "-0.09 ± 0.055"},
      {"variant": "SPISQSQFIPLGEILCLAISAMNSARKPVTQEALMEHLTTCFVGVPTPSQEILRHTLNTLVRERKIYPTPDGYFIVTP", "note": "[P43V]", "abundance fitness": "-0.076 ± 0.047"},
      {"variant": "SPISQSQFIPLGEILCLAISAMNSARKPVTQEALMEHLTTCFTGVPTPSQEILRHTLNTLVRERKIYPTPDGYFIVTP", "note": "[P43T]", "abundance fitness": "-0.028 ± 0.067"},
      {"variant": "SPISQSQFIPLGEILCLAISAMNSARKPVTQEALMEHLTTCFEGVPTPSQEILRHTLNTLVRERKIYPTPDGYFIVTP", "note": "[P43E]", "abundance fitness": "-0.006 ± 0.065"},
      {"variant": "SPISQSQFIPLGEILCLAISAMNSARKPVTQEALMEHLTTCFYGVPTPSQEILRHTLNTLVRERKIYPTPDGYFIVTP", "note": "[P43Y]", "abundance fitness": "-0.109 ± 0.093"},
      {"variant": "SPISQSQFIPLGEILCLAISAMNSARKPVTQEALMEHLTTCFDGVPTPSQEILRHTLNTLVRERKIYPTPDGYFIVTP", "note": "[P43D]", "abundance fitness": "-0.119 ± 0.17"},
      {"variant": "SPISQSQFIPLGEILCLAISAMNSARKPVTQEALMEHLTTCFHGVPTPSQEILRHTLNTLVRERKIYPTPDGYFIVTP", "note": "[P43H]", "abundance fitness": "-0.001 ± 0.11"},
      {"variant": "SPISQSQFIPLGEILCLAISAMNSARKPVTQEALMEHLTTCFMGVPTPSQEILRHTLNTLVRERKIYPTPDGYFIVTP", "note": "[P43M]", "abundance fitness": "-0.21 ± 0.071"},
      {"variant": "SPISQSQFIPLGEILCLAISAMNSARKPVTQEALMEHLTTCFWGVPTPSQEILRHTLNTLVRERKIYPTPDGYFIVTP", "note": "[P43W]", "abundance fitness": "-0.23 ± 0.055"}
    ]}
  ]
}
